Test results as given in patent US8784824B2, “Compositions and methods for treatment of angiogenesis in pathological lesions” (Philogen S.p.A., priority 2000, dated 2014).
pIC50: −log10 of the molar value.

What was measured:
[1] = tested on: C51 murine carcinoma cell line; test: Crystal violet cytotoxicity assay; format: cell-based; conditions: Mus musculus; C51 cells; crystal violet staining (FIG. 9); read-out: 50% inhibitory concentrations towards C51 cells
Method: C51 murine adenocarcinoma cells were seeded in 24-well plates at a density between […] per well. The plates were incubated overnight at 37° C. in humidified, 5% CO2 atmosphere to ensure the growth of the monolayer. The medium was then removed and different concentrations of doxorubicin was added. Relative cell numbers in treated and control plates were determined by crystal violet staining. Quantification is possible by solubilising the absorbed dye in ethanol 70% and determining optical density at 590 nm where absorbance is directly proportional to cell number. Relative cell number can be expressed as T/C=T−C0/C−C0×100 [T=absorbance of treated cultures, C=absorbance of control cultures, and C0=absorbance of cultures at the start of incubation (t=0)]. The results of this study are depicted in FIG. 9.

[2] = intravenously injected; cited from earlier work
[3] = biological target: recombinant human fibronectin fragment 7B89 (human) (UniProt P02751); test: 125I-labelled protein on a 7B89/Sepharose column
[4] = tested on: blood vessels of glioblastoma tumor; test: Immunohistochemistry on glioblastoma tumor
Method: (§1) Tumor and organ specimens were processed for microautoradiography to assess the pattern of ^125I-L19-IL2 fusion protein distribution within the tumors or organs as described by Tarli et al. 1999 (12). Immunohistochemical procedures were carried out as reported by Castellani et al. 1994 (11). The nonparametric Mann-Whitney test was used to assess the differences in tumor weights between the three different groups of animals (mice treated with L19-IL2 fusion protein, with mixture of L19+IL2 and PBS).
(§2) Tumor and organ specimens were processed for microautoradiography to assess the pattern of ^125I-L19TNFα fusion protein distribution within the tumors or organs as described by Tarli et al (Blood, 94: 192-198, 1999). Immunohistochemical procedures were carried out as reported by Castellani et al (Int. J. Cancer, 59: 612-618, 1994).

[5] = tested on: subcutaneously implanted F9 murine teratocarcinoma; test: Biodistribution of radiolabeled L19-mTNFα fusion protein in tumor-bearing mice; format: in vivo, mouse; conditions: F9 tumor-bearing 129 mice
Method: (§3) Purified L19-mTNFα was radiolabeled with iodine-125 using the Iodogen method (Salacinski et al., Anal. Biochem., 117: 136, 1981)(Pierce, Rockford, Ill.). After labelling, the immunoreactivity was more than 90%. 129 mice with subcutaneously implanted F9 murine teratocarcinoma were intravenously injected with 4 μg (2 μCi) of protein in 100 μl saline solution. Three animals were used for each time point. Mice were sacrificed at 3, 6, 24 and 48 hours after injection. The organs were weighed and the radioactivity was counted. All organs and tumors were placed in fixative for histological analysis and microautoradiography. Targeting results of representative organs are expressed as percent of the injected dose per gram of tissue (% ID/g).

[6] = tested on: C51 murine colon carcinoma; test: In vivo treatment with L19-mTNFα fusion protein; parameters: species or system mouse
Method: Treatment with purified L19-mTNFα fusion protein was preformed in groups of 3 Balb.C mice each injected subcutaneously with 10^6 of C51 cells. At day 12 after C51 cell injection, 0.8 μg/g of L19-TNFα fusion protein was injected into the tail vein of each animal. A similar group of 3 animals was injected with Phosphate Saline Buffer, pH 7.4 (PBS). The animals were followed for systemic toxicity (weight loss) and tumor growth daily for 6 days. At the end, animals were sacrificed and tumors were placed in fixative for histological analysis and snap frozen for immunohistochemical analysis.
The efficacy of the L19-mTNFα fusion protein in suppressing tumor growth was tested on one experimental tumor model of mouse adenocarcinoma, C51. For tumor induction, 10^6 C51 cells were injected subcutaneously in Balb/C animals. After 12 days (when the tumor reaches approximately 100-200 mm^3) animals received intravenous injections of either PBS (3 animals) or L19-mTNFα fusion protein (3 animals). The animals were monitored for weight and tumor growth daily for 6 days. […] The weight loss was always less than 6% throughout the experiment time.

[7] = biological target: T1, ED-B domain of fibronectin (Homo sapiens, UniProt P02751); test: Immunoreactivity of L19-mTNFα after radiolabelling; format: binding; parameters: recombinant ED-B domain of human Fibronectin (FN) as antigen; made in house; conditions: iodine-125, Iodogen method
Method: as §3

[8] = tested on: blood vessels of the F9 mouse tumor; test: Microautoradiography of tumors and organs of F9 tumor-bearing mice; format: in vivo
Method: as §1, §2

[9] = in vivo; cited from earlier work
[10] = biological target: T1, ED-B domain of fibronectin; test: Binding of L19-IFN-γ fusion proteins to ED-B (ELISA, BIAcore)
tumor cells = test: Block of tumor cell proliferation by L19-IFN-γ fusion proteins; format: cell-based; conditions: typical IFN-γ-dependent fashion
[11] = tested on: F9 murine teratocarcinoma, C51 murine carcinoma or FE8 tumors; test: Tumor infarction after scFv-TF injection in tumor bearing mice; format: in vivo, mouse; conditions: few hours after injection
Method: The antitumor activity of scFv(L19)-TF and scFv(D1.3)-TF was tested in mice bearing the F9 murine teratocarcinoma, the C51 murine carcinoma or FE8 tumors (derived from subcutaneously implanted ras-transformed rat fibroblasts). Experiments were performed both in mice bearing small tumors and in mice bearing very large tumors.
(§4) Tumor bearing mice were obtained by subcutaneous injection of 10^6 of FE8 rat fibroblast, C51 colon carcinoma or F9 teratocarcinoma cells (Tarli et al., 1999). The cells were allowed to grow until the tumoral volume could be measured by a slide-calliper.

[12] = tested on: subcutaneously implanted F9 murine teratocarcinoma; test: Biodistribution of radioiodinated scFv(L19)-TF; format: in vivo, mouse; conditions: injected intravenously, quantitative biodistribution (FIG. 3)
Method: The in vivo targeting performance was analysed by biodistribution analysis as described in Tarli et al. (1999). Briefly, purified scFv(L19)-TF fusion protein was radioiodinated and injected into nude mice with subcutaneously implanted F9 murine teratocarcinoma. Mice were sacrificed at 24 hours after injection. The organs were weighed and the radioactivity counted. Targeting results of representative organs are expressed as percent of the injected dose per gram of tissue (% ID/g).

[13] = tested on: FE8 tumors (ras-transformed rat fibroblasts); test: In vivo treatment with scFv-TF fusion protein, FE8 tumors; parameters: species or system mouse; conditions: large FE8 tumors; one injection of 20 μg (FIG. 7)
Method: as §4
(§5) Mice with tumors of volume ca 1500 mm^3 were injected with a single dose of with 20 ug scFv-TF fusion protein corresponding to 10 ug TF in 200 ul saline. The injection was not repeated. Mice were monitored by tumor volume, weight and appearance including photographic documentation.

FXa = test: Enzymatic activity of TF moiety, Spectrozyme FXa assay; format: biochemical; conditions: method of Ruf et al
Method: The enzymatic activity of the scFv-TF fusion protein was analyzed using the Spectrozyme FXa assay (American Diagnostica, Pfungstadt, Germany) as described by Ruf et al (1991).

[14] = tested on: F9 murine teratocarcinoma; test: In vivo treatment with scFv-TF fusion protein, F9 tumors; parameters: species or system mouse; conditions: small F9 tumors; three injections of 20 μg (FIG. 4)
Method: as §4
(§6) Mice with tumors of volume ca 200-300 mm^3 were injected with 20 ug scFv-TF fusion protein corresponding to 10 ug TF in 200 ul saline. The injection was repeated after 48 and 96 hours. Mice were monitored by tumor volume, weight and appearance including photographic documentation.

[15] = biological target: T1, ED-B domain of fibronectin; test: Antigen binding assays of scFv(L19)-TF (ELISA, BIAcore, antigen column)
Method: The immunoreactivity of the scFv-TF fusion protein was analyzed by ELISA immunoassay, by BIAcore and by affinity chromatography on antigen column, as described (Neri et al., 1996; D. Neri et al. (1997) Nature Biotechnology, 15, 1271-1275.; Tarli et al., 1999).

C51 murine carcinoma = test: In vivo treatment with scFv-TF fusion protein, C51 tumors; parameters: species or system mouse
Method: as §4, §6, §5

T1 sequence (P02751 1271-1359 limits assumed): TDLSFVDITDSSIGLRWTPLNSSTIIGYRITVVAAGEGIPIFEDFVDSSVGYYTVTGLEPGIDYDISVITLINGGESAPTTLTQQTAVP
Sequence of recombinant human fibronectin fragment 7B89 (human) (P02751 1173-1537 limits assumed): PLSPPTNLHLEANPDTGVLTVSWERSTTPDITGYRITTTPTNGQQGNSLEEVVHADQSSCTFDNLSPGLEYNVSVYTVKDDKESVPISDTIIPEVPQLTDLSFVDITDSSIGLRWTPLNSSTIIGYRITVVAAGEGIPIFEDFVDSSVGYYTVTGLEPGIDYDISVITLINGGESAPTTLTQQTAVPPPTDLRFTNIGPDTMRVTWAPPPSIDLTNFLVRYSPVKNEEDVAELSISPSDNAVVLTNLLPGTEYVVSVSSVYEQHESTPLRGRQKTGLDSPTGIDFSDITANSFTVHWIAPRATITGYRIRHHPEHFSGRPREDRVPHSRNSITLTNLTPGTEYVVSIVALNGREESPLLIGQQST

COc1cccc2c1C(=O)c1c(O)c3c(c(O)c1C2=O)C[C@@](O)(C(=O)CO)C[C@@H]3O[C@H]1C[C@H](N)[C@H](O)[C@H](C)O1 [doxorubicin, Doxorubicin]
pIC50 [1]: ~7.00 | maximal tolerated dose [2]: 8 mg/kg

L19-IL2 fusion protein (from UniProt P60568 21-153)
immunoreactive fraction [3]: > 90%

L19-mTNFα fusion protein: fusion of mouse TNFα to the scFv L19 via a 15 amino acid linker
immunohistochemical staining of blood vessels [4]: strongly stain blood vessels of glioblastoma tumor | % ID/g Bladder ([5]; 3 h after i.v. injection): 37.52 ± 26.7 % ID/g | % ID/g Blood ([5]; 3 h after i.v. injection): 8.39 ± 5.0 % ID/g | % ID/g Heart ([5]; 3 h after i.v. injection): 2.69 ± 0.7 % ID/g | % ID/g Kidney ([5]; 3 h after i.v. injection): 7.96 ± 3.0 % ID/g | % ID/g Liver ([5]; 3 h after i.v. injection): 8.42 ± 1.9 % ID/g | % ID/g Lung ([5]; 3 h after i.v. injection): 6.56 ± 1.7 % ID/g | % ID/g Muscle ([5]; 3 h after i.v. injection): 1.33 ± 0.3 % ID/g | % ID/g Skin ([5]; 3 h after i.v. injection): 2.83 ± 1.3 % ID/g | % ID/g Spleen ([5]; 3 h after i.v. injection): 9.08 ± 2.0 % ID/g | % ID/g Thyroid ([5]; 3 h after i.v. injection): 3.21 ± 0.8 % ID/g | % ID/g Tumor ([5]; 3 h after i.v. injection): 22 % ID/g | % ID/g Tumor ([5]; 3 h after i.v. injection, listed as L19-TNFa fusion protein): 22.02 ± 2.3 % ID/g | % ID/g Bladder ([5]; 6 h after i.v. injection): 18.14 ± 9.1 % ID/g | % ID/g Blood ([5]; 6 h after i.v. injection): 2.13 ± 0.9 % ID/g | % ID/g Heart ([5]; 6 h after i.v. injection): 1.32 ± 0.5 % ID/g | % ID/g Kidney ([5]; 6 h after i.v. injection): 6.06 ± 5.2 % ID/g | % ID/g Liver ([5]; 6 h after i.v. injection): 2.39 ± 0.9 % ID/g | % ID/g Lung ([5]; 6 h after i.v. injection): 2.79 ± 1.4 % ID/g | % ID/g Muscle ([5]; 6 h after i.v. injection): 0.76 ± 0.2 % ID/g | % ID/g Skin ([5]; 6 h after i.v. injection): 1.68 ± 0.9 % ID/g | % ID/g Spleen ([5]; 6 h after i.v. injection): 3.29 ± 0.9 % ID/g | % ID/g Thyroid ([5]; 6 h after i.v. injection): 2.91 ± 1.8 % ID/g | % ID/g Tumor ([5]; 6 h after i.v. injection): 11.57 ± 2.7 % ID/g | % ID/g Bladder ([5]; 24 h after i.v. injection): 2.9 ± 2.2 % ID/g | % ID/g Blood ([5]; 24 h after i.v. injection): 0.09 ± 0.0 % ID/g | % ID/g Heart ([5]; 24 h after i.v. injection): 0.06 ± 0.0 % ID/g | % ID/g Kidney ([5]; 24 h after i.v. injection): 0.18 ± 0.0 % ID/g | % ID/g Liver ([5]; 24 h after i.v. injection): 0.15 ± 0.0 % ID/g | % ID/g Lung ([5]; 24 h after i.v. injection): 0.18 ± 0.1 % ID/g | % ID/g Muscle ([5]; 24 h after i.v. injection): 0.05 ± 0.0 % ID/g | % ID/g Skin ([5]; 24 h after i.v. injection): 0.03 ± 0.0 % ID/g | % ID/g Spleen ([5]; 24 h after i.v. injection): 0.13 ± 0.0 % ID/g | % ID/g Thyroid ([5]; 24 h after i.v. injection): 1.93 ± 0.5 % ID/g | % ID/g Tumor ([5]; 24 h after i.v. injection): 9.77 ± 1.4 % ID/g | % ID/g Bladder ([5]; 48 h after i.v. injection): 0.08 ± 0.0 % ID/g | % ID/g Blood ([5]; 48 h after i.v. injection): 0.01 ± 0.0 % ID/g | % ID/g Heart ([5]; 48 h after i.v. injection): 0.01 ± 0.0 % ID/g | % ID/g Kidney ([5]; 48 h after i.v. injection): 0.05 ± 0.0 % ID/g | % ID/g Liver ([5]; 48 h after i.v. injection): 0.02 ± 0.0 % ID/g | % ID/g Lung ([5]; 48 h after i.v. injection): 0.02 ± 0.0 % ID/g | % ID/g Muscle ([5]; 48 h after i.v. injection): 0.0 ± 0.0 % ID/g | % ID/g Skin ([5]; 48 h after i.v. injection): 0.01 ± 0.0 % ID/g | % ID/g Spleen ([5]; 48 h after i.v. injection): 0.01 ± 0.0 % ID/g | % ID/g Thyroid ([5]; 48 h after i.v. injection): 0.0 ± 0.0 % ID/g | % ID/g Tumor ([5]; 48 h after i.v. injection): more than 9 % ID/g | % ID/g Tumor ([5]; 48 h after i.v. injection, listed as L19-TNFa fusion protein): 9.55 ± 1.7 % ID/g | tumor growth with respect to animals injected with PBS ([6]; 0.8 μg/g i.v. at day 12, followed 6 days (FIG. 23)): decrease in tumor growth | weight loss ([6]; throughout the experiment time (6 days)): less than 6% | immunoreactivity after labelling [7]: more than 90% | accumulation of radiolabeled fusion protein in tumor blood vessels ([8]; F9 mouse tumor, microradiographic analysis): Accumulation of the radiolabeled fusion protein was shown | accumulation of radiolabeled fusion protein in vessels of other organs ([8]; organs of F9 tumor bearing mice): No accumulation

TNFα
plasma half-life [9]: less than 30 minutes

scFv(L19)-(IFN-γ)2: IFN-γ homodimer (two IFN-γ joined by a polypeptide linker) fused at the C-terminal extremity of scFv(L19)
binding to the ED-B domain of fibronectin [10]: strong binding | block of proliferation of tumor cells (tumor cells): block the proliferation of tumor cells

scFv(L19)-IFN-γ: IFN-γ monomer fused at the C-terminal extremity of scFv(L19)
binding to the ED-B domain of fibronectin [10]: bind with high-affinity | block of proliferation of tumor cells (tumor cells): block the proliferation of tumor cells

scFv(L19)-TF: scFv(L19) specific for ED-B domain of fibronectin genetically fused to truncated tissue factor
tumor infarction [11]: rapid and extensive tumor infarction | ability to target solid tumors [12]: target solid tumors | antitumor effect on tumor growth [13]: stopped tumor growth | activity of the TF moiety (FXa): active | reduction of growth rate [14]: approx. 50% | activity of the antibody moiety [15]: active | antitumor effect on tumor growth (C51 murine carcinoma; large C51 tumors, one injection of 20 μg (FIG. 6)): stopped tumor growth | reduction of growth rate (C51 murine carcinoma; small C51 tumors, three injections of 20 μg (FIG. 5)): approx. 50%
